According to patent CN113214400A (FUKANG SHANGHAI HEALTH TECH CO LTD, dated 2021):

How the values were obtained:
[1] = molecular target: T1, 小鼠PD-L1 (全长, 表达于293F细胞 WBP315.293F.mPro1.C1) (mouse, UniProt Q9EP73 19-290); assay: flow cytometry on 293F cells expressing mouse PD-L1
T1 construct: whole, on cells; also called mouse PD-L1

[2] = molecular target: T2, 人PD-L1 (全长, 表达于CHO-K1细胞 WBP315.CHO-K1.hPro1.C11) (human, UniProt Q9NZQ7 19-290); assay: flow cytometry on CHO-K1 cells expressing human PD-L1
T2 construct: whole, on cells; also called human PD-L1; hPD-L1
T2 sequence (Q9NZQ7 19-290): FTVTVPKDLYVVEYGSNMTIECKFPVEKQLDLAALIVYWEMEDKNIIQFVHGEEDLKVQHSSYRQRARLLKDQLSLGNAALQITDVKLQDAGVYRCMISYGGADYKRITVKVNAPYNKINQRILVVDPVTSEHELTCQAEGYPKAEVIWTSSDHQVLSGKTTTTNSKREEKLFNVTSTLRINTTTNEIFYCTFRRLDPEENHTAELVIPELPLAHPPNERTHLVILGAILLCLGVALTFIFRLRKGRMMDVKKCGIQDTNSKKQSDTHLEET

T1 sequence (Q9EP73 19-290): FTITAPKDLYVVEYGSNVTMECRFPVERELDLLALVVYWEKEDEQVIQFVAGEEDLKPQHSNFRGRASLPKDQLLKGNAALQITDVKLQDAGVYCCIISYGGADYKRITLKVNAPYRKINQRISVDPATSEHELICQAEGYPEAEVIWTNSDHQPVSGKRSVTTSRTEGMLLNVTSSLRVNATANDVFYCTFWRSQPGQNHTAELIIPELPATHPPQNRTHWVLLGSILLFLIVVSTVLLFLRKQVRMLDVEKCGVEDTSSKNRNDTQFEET

B1: W3156-AP3R2-1A3-z12-hIgG1 (Fc fusion)
chain: EVQLVESGGGLVQPGGSLRLSCAASGHFSNLAVNWFRQAPGKERELVAGILWSGGSTFYADSVKGRFTISRGNAENMLYLQMNSLRAEDTAVYYCNTGTNWGQGTLVTVSS
notes: tested as hIgG1 format; also called 抗PD-L1 VHH抗体; 亲本抗体 (PD-L1 arm); not shown: hIgG1 part (hinge/Fc) of the VHH-hIgG1 format
- binding result [1]: binds
- binding result [2]: binds
